From the supplement of paper PMC10567573
± gives the standard deviation.

Experiment: protein stability index of a GFP-peptide fusion (GPS, HEK-293T) (PSI 1-6); higher = more stable
[1] = treatment: DMSO, c terminus: a fixed tail appended
[2] = treatment: MLN4924 1 uM, 8 h, c terminus: a fixed tail appended
[3] = treatment: DMSO, c terminus: native
[4] = treatment: MLN4924 1 uM, 8 h, c terminus: native
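Note: 24-mer peptide tiles fused after GFP, lentivirally expressed, FACS-sorted into six equal bins by GFP/DsRed ratio, decoded by Illumina sequencing, PSI is the read-weighted mean bin number.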

Sequence	protein stability index [1]	protein stability index [2]	protein stability index [3]	protein stability index [4]
FYHCSNDDEGDSYSDNPCSCSQSH [SPRY1]	4.28 ± 0.076	4.31 ± 0.25	–	–
MLALRGQTGGDVNVEMDAAPGVDL [KRT16]	4.25 ± 0.17	4.78 ± 0.17	–	–
PGLPGSTGNPKSEEPEVPDQEGLQ [SPNS1]	5.39 ± 0.75	4.88 ± 0.22	–	–
ILISFTCRFLLNSRVTDAAFNFLL [TMEM120A]	2.9 ± 0.38	3.25 ± 0.23	–	–
AMELKVEDPFYWVSPGVLVLLAVL [MOG]	2.8 ± 0.94	2.55 ± 0.34	–	–
VCQEVLERSRDVVDEVSVSLRLWD [RHOBTB1]	3.1 ± 0.48	3.36 ± 0.46	–	–
YSENAPFHLSLFQGWMNLLNMAKK [PLD5]	2.08 ± 0.61	2.23 ± 0.13	–	–
RYGQLIEINSHSLFSKWFSESGKL [TRIP13]	2.27 ± 0.49	2.49 ± 0.83	–	–
QAEVLSRQITSPVSGINGDIRAKK [HNF4A]	5.05 ± 0.22	5.09 ± 0.036	–	–
LYWRDIKQTGIVFGSFLLLLFSLT [RTN1]	2.52 ± 0.22	2.35 ± 0.23	–	–
PPLRNYFLEEDNYKNIKRPPGDIM [USP39]	3.19 ± 0.19	3.37 ± 0.17	–	–
DDYTSAIEVQPNFEVPYYNRGLIL [TTC32]	2.4 ± 0.45	2.42 ± 0.38	–	–
IQAEERLDMEKRRCRQSLEDSESL [LRRC45]	5.08 ± 0.27	5.16 ± 0.1	–	–
QTHSNTIVVSLQSKLASMSNDFKS [STX5]	2.8 ± 0.11	2.92 ± 0.24	–	–
AFASGSDDATCRLYDLRADREVAI [GNB5]	3.12 ± 0.22	2.95 ± 0.11	–	–
DSYSSSRSDLYSSGRDRVGRQERG [RBMX]	4.72 ± 0.059	4.84 ± 0.22	–	–
AGFCMFVLSLVKKHYRLQFYMFAW [CDS1]	2.05 ± 0.36	2.16 ± 0.38	–	–
KAQIWDTAGQERYRAITSAYYRGA [RAB11A]	2.88 ± 0.16	2.98 ± 0.31	–	–
LLMVRASRRSGKTSAVLKAGRQSV [C6orf223]	2.63 ± 0.17	2.85 ± 0.19	–	–
LFGHPGLDMELGPSQGQETNEVCE [ADAMTSL2]	–	5.29 ± 0.35	–	–
TAIRQLTEPSGRVAKKTPTKRSTL [C2CD2L]	4.37 ± 0.15	4.44 ± 0.084	–	–
RPSMASELMPSSRLWSLSYTKLPS [SLC25A39]	2.99 ± 0.19	2.92 ± 0.26	–	–
TLDSYEDKQKLKRTEIISRSWFPS [YJU2B]	3.14 ± 0.12	3.24 ± 0.29	–	–

Sequence	protein stability index [1]	protein stability index [2]	protein stability index [3]	protein stability index [4]
GCVSRCWEVQVSPTCPVCKDRASP [TRIM35]	4.04 ± 0.28	4.13 ± 0.44	–	–
KEASRHAIMRSPQMVSAIVRTMQN [CTNNB1]	3.15 ± 0.32	3.3 ± 0.35	–	–
AIGALLVCYHYYADWFMSLGVGLL [TMEM40]	3.087 ± 0.018	2.86 ± 0.62	–	–
PVIIAAVGTRQNEELPCTCPLCTS [RHOBTB3]	3.76 ± 0.37	3.92 ± 0.35	–	–
LRPQRTKQYVLLSILLCLLASGLV [TMEM106C]	3.11 ± 0.38	2.9 ± 0.26	–	–
DAAAILLDEQNKRPCRKFLLTGQC [ZMAT5]	2.98 ± 0.45	3 ± 0.59	–	–
VMEIQKQIEKKEKKLHKIQNKAQR [TAF7L]	4.13 ± 0.088	4.36 ± 0.21	–	–
GDHRSPASAQKFSSRSTVPTPAKR [NET1]	4.75 ± 0.38	5.05 ± 0.23	–	–
EIIELLILSGARVNAKDNMWLTPL [ANKRD44]	3.16 ± 0.2	3.3 ± 0.72	–	–
HTFKTRFTQPLLPAFTVWCGSFQV [FSD1]	3.1 ± 0.55	2.69 ± 1.1	–	–
SSCNGPGQTTGHPYYLRSFLVVLK [FAN1]	2.21 ± 0.47	2.51 ± 0.47	–	–
SKAVFLWNMDKYTMIRKLEGHHHD [WSB1]	2.24 ± 0.16	2.24 ± 0.33	–	–
DHIIEKKRTIIPTLVEAIKEQDGR [DFFB]	4.63 ± 0.24	4.68 ± 0.2	–	–
DRKSVKFVETRLRDLPDTPRRFTF [TRIM39]	2.98 ± 0.12	3.08 ± 0.29	–	–
KKVLNLLKGAFPARLKKVLIVGAP [PTPN9]	2.81 ± 0.83	2.99 ± 0.43	–	–
SVKLRALRSPRKFGVAGRSCQEVL [DFFB]	2.73 ± 0.34	3.01 ± 0.54	–	–
YKIVTAREWRCCPGHSGVSCEEVA [EMID1]	2.49 ± 0.32	2.39 ± 0.41	–	–
KLNCDPSRIYKPQTRLKRKQPVRK [DFFB]	3.36 ± 0.56	3.71 ± 0.63	–	–
YEKKFDTFIPLEPLPQIPNLPFWV [SPATS1]	2.24 ± 0.31	1.95 ± 0.18	–	–
RVRSLETENRRLESKIREHLEKKG [KRT18]	4.44 ± 0.26	4.99 ± 0.18	–	–
LEQFVTRFLLKETLNQLQSLQNSL [NECAB1]	2.87 ± 1.3	2.76 ± 0.27	–	–
WESRTGDQYSYSSLVMGSQTESAL [LCOR]	3.44 ± 0.27	3.51 ± 0.46	–	–
TSSSSSSSRQTRPILKEQSSSSFS [KRT16]	4.66 ± 0.14	4.61 ± 0.11	–	–

Sequence	protein stability index [1]	protein stability index [2]	protein stability index [3]	protein stability index [4]
HFRHPKRSVSLSMRKSGAMKKGGI [BNIP3L]	3.51 ± 0.36	3.32 ± 0.35	–	–
QHYTETALDEIKLLKCVRESDPSD [SRPK2]	4.82 ± 0.22	4.92 ± 0.16	–	–
NDKFSFHEVKDNYIPVIKRALNSV [RHOBTB3]	2.19 ± 0.49	2.41 ± 0.24	–	–
KEVGSHFDDFVTNLIEKSASLDNG [SOAT1]	4.19 ± 0.26	4.46 ± 0.37	–	–
GVRIVSRGRTQLFSLNPRSGSLIT [PCDHGA10]	2.08 ± 0.2	2.21 ± 0.25	–	–
AEWLLAVRSIQPEEKERIGQFVFA [AASDHPPT]	2.29 ± 0.15	2.13 ± 0.18	–	–
RILDELTLCKADLEAQVESLKEEL [KRT36]	3.76 ± 0.35	3.68 ± 0.54	–	–
AAAIIVYDITKEETFSTLKNWVKE [RAB22A]	2.67 ± 1.1	1.95 ± 0.86	–	–
GILHYAHGDSQQTHLLKQGRSSMG [CRY1]	3.6 ± 0.23	3.52 ± 0.3	–	–
KFYAVLKGTILYLQKDEYRPDKAL [PSD2]	2.83 ± 0.53	2.58 ± 0.44	–	–
SVSRPEGRSWPSAPDDSKAQAHRI [PDLIM4]	4.76 ± 0.21	4.95 ± 0.18	–	–
VLKVLSVCSSNKPAIVEAGGMQAL [CTNNB1]	2.46 ± 0.24	2.46 ± 0.098	–	–
VTSFDSVVPEKLDDLVPKGKKFLL [ALG2]	3.32 ± 0.25	3.31 ± 0.16	–	–
ESKVREATNDDPWGPSGQLMGEIA [CLINT1]	4.7 ± 0.12	4.78 ± 0.096	–	–
QPYPLPHVRHMAYQLCHALRFLHE [CLK3]	2.34 ± 0.1	2.1 ± 0.23	–	–
AGSRQALSFEVPPCNYDPEKWIQ	–	–	2.69 ± 0.59	3.35 ± 0.51
ITEEKVCMVCKKKIGNSAFARYPN [VPS39]	2.73 ± 0.31	3.43 ± 0.53	–	–
SGLIYLTNHIAPHARNGLSLKEEH [IKZF1]	2.58 ± 0.37	2.71 ± 0.19	–	–
PRLQELLGPSPQRDPQAVKERALS [ZNF263]	4.6 ± 0.27	4.65 ± 0.3	–	–
ISQHGDPLLSNTFTETNNHWPQGP [EMID1]	3.87 ± 0.29	4.08 ± 0.16	–	–
PKAKAKAKAKAKDQTKAQAAAPAS [RPL29]	5.2 ± 0.22	5.21 ± 0.072	–	–
VSIMYLVLVLAVQVHAWQLYYSKK [JAGN1]	2.98 ± 0.67	3.27 ± 0.16	–	–
LSIVLERMRYEGVVDIFQTVKMLR [PTPRD]	2.1 ± 0.48	2.42 ± 0.58	–	–

Sequence	protein stability index [1]	protein stability index [2]	protein stability index [3]	protein stability index [4]
ESDPSDPNKDMVVQLIDDFKISGM [SRPK2]	4.82 ± 0.3	4.8 ± 0.26	–	–
KLPLPIALRSHLKSFSMANGLNAR [RAB40B]	2.41 ± 0.23	2.46 ± 0.19	–	–
AKPGSTEKGLPLRKTHVLLGRSHD [MFSD9]	3.79 ± 0.23	3.86 ± 0.17	–	–
FSLVLVLDLSKPNDLWPTMENLLQ [DYNC2LI1]	2.67 ± 0.51	2.72 ± 0.41	–	–
RMRYLNGLDPEPLPLMDLCRRSVR [SPSB1]	3.21 ± 0.27	3.36 ± 0.1	–	–
RELESREAELRRRDTFYKEQLERI [CHCHD6]	4.56 ± 0.12	4.87 ± 0.39	–	–
QRPLVSVTVSDASWVSELLWSLFV [AUP1]	2.36 ± 0.2	2.14 ± 0.2	–	–
RCMQCDAKFDFLTRKHHCRRCGKC [ZFYVE21]	3.94 ± 0.34	4.3 ± 0.3	–	–
NIHQLQNRLSELEVANKDLTERKY [SASS6]	3.42 ± 0.15	3.62 ± 0.34	–	–
EMLTGQERVALANRKRECGNAHYQ [FKBP8]	3.71 ± 0.23	3.86 ± 0.27	–	–
MERARDRLHLRRTTEQHVPEVEVQ [SNURF]	4.77 ± 0.2	4.72 ± 0.06	–	–
REKIMKLPLPESLKAYLTYFRDK [PCMTD1]	–	–	2.05 ± 0.36	2.59 ± 0.34
ALSGASQPGPSGAPAQRATRGFLR [RETREG3]	4.59 ± 0.16	4.78 ± 0.073	–	–
DDSPRSALAAATAAAAAAASAAAA [SPAG8]	4.79 ± 0.39	4.86 ± 0.42	–	–
TPKLDCFLSGMEAAPRTLAAHPPL [TBX6]	3.18 ± 0.17	3.48 ± 0.2	–	–
SSTSGGSGYGFRPSMVSGGYVANS [KRT71]	3.29 ± 0.31	3.46 ± 0.49	–	–
SKCLVDDGTGRMPTLKKCEDVARP [GALNT9]	4.57 ± 0.16	4.54 ± 0.21	–	–
GQSLLKDEALAIAALELLPRELFP [PRAME]	2.75 ± 0.41	2.84 ± 0.36	–	–
SSKSSGDLVDLFDGTSQSTGGSAD [CLINT1]	5.41 ± 0.22	5.55 ± 0.21	–	–
DTGVAFELRDSSAYHVPNRTLASG [DNAAF3]	3.87 ± 0.18	3.94 ± 0.054	–	–
